Assay results reported in US20260109761A1 (IP2IPO INNOVATIONS, published 2026).
Numbering of substitutions follows the chain as printed.

B1: 51B12_VH_L1 (antibody, V domains shown)
VH: QVQLVESGGGVVQPGRSLRLSCAASGFTFSDYGMHWVRQAPGKGLEWVAYISSGGTTIYYADTVKGRFTISRDNSKNTLYLQMNSLRAEDTAVYYCARWTNLYAMDYWGQGTTVTVSS
VL: DIVLTQSPDSLAVSLGERATINCRASKSVSTQGYSYMHWYQQKPGQPPKFLIYLASNLESGVPDRFSGSGSGTDFTLTISSLQAEDVAVYYCQHSREVPYTFGGGTKVEIKR
notes: Fc null human IgG1 / human kappa
B2: 51B12_VH_L2 (antibody, V domains shown)
VH: B1 VH
VL: B1 VL with Q32S, L58K
notes: as for B1
B3: H2_G66Q_L1 (antibody, V domains shown)
VH: B1 VH with G66Q
VL: B1 VL
notes: as for B1
B4: H2_G66Q_L2 (antibody, V domains shown)
VH: B1 VH with G66Q
VL: B1 VL with Q32S, L58K
notes: as for B1
B5: H2_G66Q_VL-par (antibody, V domains shown)
VH: B1 VH with G66Q
VL: B1 VL with Q32S
notes: as for B1
B6: H2_K65P_L1 (antibody, V domains shown)
VH: B1 VH with K65P
VL: B1 VL
notes: as for B1
B7: H2_K65P_L2 (antibody, V domains shown)
VH: B1 VH with K65P
VL: B1 VL with Q32S, L58K
notes: as for B1
B8: H2_K65P_VL-par (antibody, V domains shown)
VH: B1 VH with K65P
VL: B1 VL with Q32S
notes: as for B1
B9: H2_T56H_L1 (antibody, V domains shown)
VH: B1 VH with T56H
VL: B1 VL
notes: as for B1
B10: H2_T56H_L2 (antibody, V domains shown)
VH: B1 VH with T56H
VL: B1 VL with Q32S, L58K
notes: as for B1
B11: H2_T56H_VL-par (antibody, V domains shown)
VH: B1 VH with T56H
VL: B1 VL with Q32S
notes: as for B1
B12: H2_T57H_L1 (antibody, V domains shown)
VH: B1 VH with T57H
VL: B1 VL
notes: as for B1
B13: H2_T57H_L2 (antibody, V domains shown)
VH: B1 VH with T57H
VL: B1 VL with Q32S, L58K
notes: as for B1
B14: H2_T57H_VL-par (antibody, V domains shown)
VH: B1 VH with T57H
VL: B1 VL with Q32S
notes: as for B1
B15: H2_T63Y_L1 (antibody, V domains shown)
VH: B1 VH with T63Y
VL: B1 VL
notes: as for B1
B16: H2_T63Y_L2 (antibody, V domains shown)
VH: B1 VH with T63Y
VL: B1 VL with Q32S, L58K
notes: as for B1
B17: H2_T63Y_VL-par (antibody, V domains shown)
VH: B1 VH with T63Y
VL: B1 VL with Q32S
notes: as for B1
B18: H2_Y60K_L1 (antibody, V domains shown)
VH: B1 VH with Y60K
VL: B1 VL
notes: as for B1
B19: H2_Y60K_L2 (antibody, V domains shown)
VH: B1 VH with Y60K
VL: B1 VL with Q32S, L58K
notes: as for B1
B20: H2_Y60K_VL-par (antibody, V domains shown)
VH: B1 VH with Y60K
VL: B1 VL with Q32S
notes: as for B1
B21: H3_M105P_L1 (antibody, V domains shown)
VH: B1 VH with M105P
VL: B1 VL
notes: as for B1
B22: H3_M105P_L2 (antibody, V domains shown)
VH: B1 VH with M105P
VL: B1 VL with Q32S, L58K
notes: as for B1
B23: H3_M105P_VL-par (antibody, V domains shown)
VH: B1 VH with M105P
VL: B1 VL with Q32S
notes: as for B1
B24: H3_W99H_L2 (antibody, V domains shown)
VH: B1 VH with W99H
VL: B1 VL with Q32S, L58K
notes: as for B1
B25: H3_W99H_VL-par (antibody, V domains shown)
VH: B1 VH with W99H
VL: B1 VL with Q32S
notes: as for B1

Tests used:
huZIP12-ECD-GST [1] = target: T1, huZIP12-ECD-GST (human, UniProt Q504Y0 24-202); test: SPR single cycle kinetics (Biacore): mAb captured on protein A, huZIP12-ECD-GST injected at 3.12-800 nM
T1 construct: also called hZIP12-ECD-GST; human ZIP12-ECD-GST; not shown: glutathione S-transferase (GST) tag
T1 sequence (Q504Y0 24-202): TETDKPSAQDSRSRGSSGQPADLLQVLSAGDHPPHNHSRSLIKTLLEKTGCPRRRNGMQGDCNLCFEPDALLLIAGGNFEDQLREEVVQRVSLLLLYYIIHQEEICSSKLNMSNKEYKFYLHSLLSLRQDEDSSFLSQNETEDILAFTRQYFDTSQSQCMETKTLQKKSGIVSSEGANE
Description: (§1) Single Cycle Kinetics (SCK) involves first capturing the mAb onto the protein A sensor surface and then sequentially injecting a series of concentrations of huZIP12-ECD-GST over the surface starting at the lowest concentration and ending with the highest concentration. The final concentration is followed by a dissociation phase where buffer only is passed across the surface followed by regeneration, where the remaining bound huZIP12-ECD-GST is removed from the surface by injection of a 10 mM Glycine pH 1.5 and 50 mM NaOH solution. The SCK is repeated for each monoclonal antibody providing duplicate data and the kinetics of each interaction is evaluated by the Biacore software.
(§2) Referring to FIG. 6, there are shown the kinetic parameters obtained for all antibody variants when screened with the 3.12 nM to 800 nM huZIP12-ECD-GST. […] Affinity.

huZIP12-ECD-GST [2] = target: T1, huZIP12-ECD-GST; test: SPR single cycle kinetics (Biacore): mAb captured on protein A, huZIP12-ECD-GST injected at 2.34-600 nM, extended dissociation
Description: as §1
A selection of the higher affinity antibody variants were re-tested at a lower concentration series with an extended dissociation time with the objective of obtaining a better assessment of the binding kinetics. Referring now to FIG. 7, there are shown the data for the monoclonal antibodies that were re-tested to optimise the binding kinetic data. Once again, three antibody variants, H3_W99H_L1, H3_W99HL2 and H3_W99H_VL-par, all appear to have a higher affinity than the parent antibody. The on-rate (ka), off-rate (kd) and overall affinity measurement (KD) are all improved compared to the 51B12 VH_VL_par parent antibody.

huZIP12-ECD-GST [3] = target: T1, huZIP12-ECD-GST; test: SPR single cycle kinetics, mAb captured on protein A, 3.12-800 nM huZIP12-ECD-GST
Description: as §1, §2

Binder | Kd (huZIP12-ECD-GST [1]) [nM] | koff (huZIP12-ECD-GST [1]) [s⁻¹] | kon (huZIP12-ECD-GST [1]) [M⁻¹ s⁻¹] | Kd (huZIP12-ECD-GST [2]) [nM] | koff (huZIP12-ECD-GST [2]) [s⁻¹] | kon (huZIP12-ECD-GST [2]) [M⁻¹ s⁻¹] | Kd (huZIP12-ECD-GST [3]) [nM]
B1 | 0.963 | 2.83e-05 | 29300 | – | – | – | –
B2 | 1.12 | 2.86e-05 | 25600 | – | – | – | –
B3 | 0.968 | 3.34e-05 | 34600 | – | – | – | –
B4 | 1.17 | 3.42e-05 | 29100 | 1.2 | 3.59e-05 | 30000 | –
B5 | 1.08 | 3.72e-05 | 34400 | 0.83 | 2.78e-05 | 33600 | –
B6 | 1.07 | 3.08e-05 | 28800 | – | – | – | –
B7 | 1.13 | 2.62e-05 | 23200 | – | – | – | –
B8 | 1.08 | 2.92e-05 | 27000 | – | – | – | –
B9 | 1.3 | 3.45e-05 | 26400 | – | – | – | –
B10 | 1.61 | 3.74e-05 | 23200 | – | – | – | –
B11 | 1.29 | 3.38e-05 | 26200 | 0.591 | 1.51e-05 | 25600 | –
B12 | 0.743 | 3.3e-05 | 44400 | 0.971 | 4.18e-05 | 43100 | –
B13 | 0.98 | 3.78e-05 | 38600 | – | – | – | –
B14 | 0.791 | 3.47e-05 | 43900 | 0.792 | 3.3e-05 | 41600 | –
B15 | 1.07 | 3.16e-05 | 29600 | 1.34 | 3.68e-05 | 27500 | –
B16 | 1.15 | 3.06e-05 | 26700 | – | – | – | –
B17 | 1.03 | 3.04e-05 | 29600 | 0.868 | 2.51e-05 | 28900 | –
B18 | 0.957 | 3.7e-05 | 38600 | 0.604 | 2.25e-05 | 37200 | –
B19 | 1.11 | 4.04e-05 | 36500 | – | – | – | –
B20 | 1.09 | 4.01e-05 | 36700 | 0.829 | 3.26e-05 | 39400 | –
B21 | 1.55 | 4.35e-05 | 28100 | – | – | – | –
B22 | 1.93 | 4.14e-05 | 21500 | – | – | – | –
B23 | 1.63 | 4.03e-05 | 24700 | – | – | – | –
B24 | 0.472 | 3.98e-05 | 84300 | 0.339 | 3.16e-05 | 93100 | ~0.5
B25 | 0.481 | 4.67e-05 | 97100 | 0.322 | 3.29e-05 | 102000 | ~0.5
